Measured values published in the RNAGym collection of RNA variant scans (doi:10.1073/pnas.2313332121).
This sample holds only a part of the variants without activity.

B1: TPR 5TU (parent)
chain: GGAUCUUCUCGAUCUAACAAAAAAGACAAAUCUGCCACAAAGCUUGAGAGCAUCUUCGGAUGCAGAGGCGGCAGCCUUCGGUGGCGCGAUAGCGCCAACGUUCUCAACUAUGACACGCAAAACGCGUGCUCCGUUGAAUGGAGUUUAUCAUG

Variants of: B1
Assay: polymerase ribozyme fitness, log enrichment relative to wild type (log ratio); higher = more active; in vitro selection for triplet polymerase activity
Outline: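 For each subunit of a heterodimeric triplet polymerase ribozyme, a mutant library was built by PCR and transcribed, then taken through a single in vitro selection round in triplicate. Selection involved annealing to a biotinylated primer, the partner subunit and triplets, incubation frozen at −7 °C, gel excision of extended constructs, capture on streptavidin beads and RT-PCR. Genotypes were retained after Illumina sequencing of inputs and outputs only with ≥10 input reads and ≥1 read in each output. Fitness is defined as the logarithm of a genotype's enrichment relative to wild-type enrichment, using inverse-variance-weighted averages across replicates, with the logarithm taken to base 2.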

Q: For GGAACUUCUCGAUCUAUCAAAAAAGACAAAUCUGCCACAAAGCUUGAGAGCAUCUUCGGAUGCAGGGGAGGCAGCCUUCGGUGUCGCGAUAGCGCCAACGUUCUCAACUAUGACACGCAAAACGCGUGCUCCGUUGAUUGGAGUUUAUCAUG [U4A A17U A66G C69A G84U A138U], which “polymerase ribozyme fitness (log ratio)” value is on record?
A: The value was ≤ -4.2.

Q: Which “polymerase ribozyme fitness (log ratio)” value does the source give for GGAUCUUCUCGCUCUAACUAAAAAGACAAAUCUGCCACAAAGCUUGAGAGCAUCUUCGGAUGCAGAGGCGGCAGCCUUCUGUGGCGCGGUAGCGCAAACGUUCUCAACUAUGACACGCAAAACGCGUGCUCCGUUGAAUGGAGUUUAUCAUG [A12C A19U G80U A89G C96A] here?
A: Its value is ≤ -4.2.

Q: For GGAUCUUCUCGCUCUAACCAAAAAGACAAAUCUGCCACAAAGCUUGAGAGCAUCUUCCGAUAUAGAGGCGGCAGCCUUCGGUGGCGCGAUAGCGCCGACGUUCUCAACUAUGACACGCAAAACGCGUGCUCCGUUGAAUGGAGUUUAUCAUG [A12C A19C G58C G62A C63U A97G], which “polymerase ribozyme fitness (log ratio)” value is on record?
A: Its value is ≤ -4.2.

Q: Which “polymerase ribozyme fitness (log ratio)” value does the source give for GGAUCUUCUCGAUCUAGCAAAAAAGACAAAUCUGCCACAAAGCUUGAGAGCAUCUUCGGAUUCAGAGGCGGCAGCCUUCGGUGGCGUGAUAGCGCCAACGUUCUCAACUAUGACACGCAAAGCGCGGGCUCGGUUGAAUGGAGUUUAUCAUG [A17G G62U C87U A122G U127G C132G] here?
A: Its value is ≤ -4.2.

Q: With GGAUCUUCUCGAUCUAACAAAAAAGACAAAUCUGCCACAAAGCUUGAGAGCAUCUCCGGAUGCAGAGGCGGCAGCCUUCGGUGGCGCGAUAGCGCCAACGGUCUCAACUAUGACACGCAUAACGCGUGCUACGUUGAAUGGAGUUUAUCAUG [U56C U101G A120U C131A] as the variant, how does the “polymerase ribozyme fitness (log ratio)” value read?
A: The value was -2.44.

Q: For GGAUCUUCUCGAUCUAACAAAAAAGCCAAAUCUGCCACAAAGCUUGAGAGCAUCUUCGGAUGCAGAGGCGGCAGCCUUCGGUGGCGCGAUAGCCCCAACGUUCUCAACUAUGACACGCAAAACGCGUGCUCCGUUGAAUGGAGUUUAUCAUG [A26C G94C], which “polymerase ribozyme fitness (log ratio)” value is on record?
A: The value was -1.54.

Q: Which “polymerase ribozyme fitness (log ratio)” value does the source give for GGAUCUUCUCGAUGUAACAAAAAAGACAAAUCUACCACAAAGCUUGAGAGCAUCUUCGGAUGCAGAGGCGGCAGCCUUCGGUGGAGCGAUAGCGCCAACGUUCUCAACUAUGACACGCAAAACGCGUGCUCCGUUGAAUGGAGUUUAUCAUG [C14G G34A C85A] here?
A: Its value is ≤ -4.2.

Q: For GGAUCUUCUCGAUCUAACAAAAAAGACUAAUCUGUCACAAAGCUUGAGAGCAUCUUCGGAUGCAGAGGCGGCAGCCUUCGGUGGCGGGAUAGCGCCAACGUUUUCAACUAUGACACGCAAGGCGCGUGCUCCGUUGAAUGGAGUUUAUCAUG [A28U C35U C87G C103U A121G A122G], which “polymerase ribozyme fitness (log ratio)” value is on record?
A: Its value is ≤ -4.2.

Q: With GGAUCUUCUCGAUCUAACAAAAUAGACAAAUCUGCCACAAAGCUUGAGAGCCUCUUCGGAUGCAGAGGCGGCAGCCUUCGGUGGCGCGAUAGCGCCAACGUUCUCAACUAUGACACGCAAAACGCGUGCUCCGUUGAAUGGAGUUUAUCAUG [A23U A52C] as the variant, how does the “polymerase ribozyme fitness (log ratio)” value read?
A: The value was ≤ -4.2.

Q: Which “polymerase ribozyme fitness (log ratio)” value does the source give for GGAUCUUCUCGAUCUAACAAAAAAGACAAAUCUGCCACAAAGCUUGAGAGCAUCUUUGGAUGCAGAGGCGGCAGCCUUCGGUGGCGCGAUAGCGCCAACGUUCUCAACUAUGACGCGCAAAACGCGUGCUCCGUUGAAUGGAGCUUAUCAUG [C57U A115G U144C] here?
A: Its value is ≤ -4.2.

Q: With GGAUCUUCUCGAUCUAACAAAAAAGACAAAUCUGCAACAAAGCUUGAGAGCAUCUACGGAUGCAGAGGCGGCAGCCGUCGGUGGCGUGAUAGCGCCAACGUACUCAACUAUGACACGCCAAACGCGUGCUCCGUUGAAUGGAGUUUAUCAUG [C36A U56A U77G C87U U102A A119C] as the variant, how does the “polymerase ribozyme fitness (log ratio)” value read?
A: Its value is ≤ -4.2.

Q: With GGAUCUUCUCGAUCUAACAAAAAAGACAAAUCUUCCACAAAGCUUGAGAGCAUCUUCGGAUGCAGAGGCGGCAGCCUUCGGUUGCGCGAUCGCGCCAAUGUUCUCAUCUAUGACACGCAAAACGCGUGCUCCGUUGAAUGGAGUUUAUCAUG [G34U G83U A91C C99U A107U] as the variant, how does the “polymerase ribozyme fitness (log ratio)” value read?
A: The value was ≤ -4.2.

Q: For GGAUCUUCUCGAUCUAACAAAAAAGACAAAACUGCCACAAAGCUUGAGAGCAUCUUCGGAUGCAGAGGCGGCAGCCUUCGGUGGCGCGAUAGCGCCAACGUUCUCAACUAUGACACGCAGAACGCGUGCUCCGUUGAAUGGAGUUUAUCAUG [U31A A120G], which “polymerase ribozyme fitness (log ratio)” value is on record?
A: The value was 0.523.

Q: Which “polymerase ribozyme fitness (log ratio)” value does the source give for GGAUCUUCUCGAUCUAACAAAAAAGACAAAUCUGCCACAAAGCUUGAGAGCAUCUUCGGAUGCAGAGGCGGCAGCCUUCGGUGGCGCGAUAGCGCGAACGUUAUCAACUAUGACACGCAAAACGCGUGCUCCGUUGAAUGGAGUUUAUCAUG [C96G C103A] here?
A: Its value is -2.09.

Q: Which “polymerase ribozyme fitness (log ratio)” value does the source give for GGAUCUUCUCGAUCUAACUAAAAAGACAAAUCGGCCACACAGCUUGAGAGCAUCUUCGGAUGCAGAGGCGGCAGCCUUCGGUGGCGUGAUAGUGCCAACGUUAUCAACUAUGACACGCAAAACGCGUGCUCCGUUGAAUGGAGUUUAUCAUG [A19U U33G A40C C87U C93U C103A] here?
A: Its value is ≤ -4.2.

Q: With GGAUCUUCUCGAUCUAACAUAAAAGACAAAUCUGCCACAAAGCUUGAGAGCAUCUUCGGAUGCAGAGGCGGCAGCCUUCGGUGUCGCGAUAGCGCCAACGUUCUCAACUAUGACACGCAUAACGCGUGCUCCGUUGAAUGGAGUUUAUCAUG [A20U G84U A120U] as the variant, how does the “polymerase ribozyme fitness (log ratio)” value read?
A: The value was -2.73.

Q: With GGAUCUUCUCGAUCUAACAAAAAAGACAAAUCUGCCACAAAGCUUGAGAGCGUCUUCGGAUGCAGAGGCGGCAGCCUUCGGUGGAGCGAUAGCGCCAACGUUCUCAACUAUGACACGCAAAACGCGUGCUCCGUUGAAUGGAGUUUAUCAUG [A52G C85A] as the variant, how does the “polymerase ribozyme fitness (log ratio)” value read?
A: The value was -2.19.

Q: Which “polymerase ribozyme fitness (log ratio)” value does the source give for GGAUCUUCUCGAUCUAACAAAAAAGACAAAUCUGCCACAAAGCUUGAGCGCAUCUUCGGAUGCAGAGGCGGCAGCCUUCGGUGGCGCGAUAGCGCCAACGUUGUCAACUAUGACGCGCAAAACGCGUGCUCCGUUGAAUGGAGUUUAUCAUG [A49C C103G A115G] here?
A: Its value is ≤ -4.2.

Q: For GGAUCUUCUCGAUCUAACAAAAAAGACAAAUCUGCCACAAAGCUUGAGAGCAUCUUCGGAUGCAGAGGCGGCAGCCUUCGGUGGCGCGAUAGCGCCAACGUUCUUAACUAUGACACGCAAAACACGUGCUCCGUUGAAUGGAGUUUAUCAUG [C105U G124A], which “polymerase ribozyme fitness (log ratio)” value is on record?
A: The value was 0.519.
